We go through 16 molecules from patent publication US20260176319A1 (KALLYOPE, published 2026).

The test has as its target human GRP receptor (human, UniProt P30550 1-384). Briefly: cell-based or functional assay.

Starred links: 1 amine or outer side, 2 acyl side, 3 side chain; linkers in the order of their positions; H or OH if unused. Non-standard residues stand in square brackets, D forms with d. *: point of attachment. Trp(6-F) = N[C@@H](Cc1c[nH]c2cc(F)ccc12)C(=O)O; Trp(7-F) = N[C@@H](Cc1c[nH]c2c(F)cccc12)C(=O)O; Trp(7-Me) = Cc1cccc2c(C[C@H](N)C(=O)O)c[nH]c12; C20 diacid = O=C(O)CCCCCCCCCCCCCCCCCCC(=O)*; d(γGlu) = O=C(O)[C@@H](CCC(=O)[*:2])N[*:1]; C18 diacid = O=C(O)CCCCCCCCCCCCCCCCC(=O)*; γGlu = O=C(O)[C@H](CCC(=O)[*:2])N[*:1]; Palmitoyl = CCCCCCCCCCCCCCCC(=O)*; 3Pal = N[C@@H](Cc1cccnc1)C(=O)O; Nle = CCCC[C@H](N)C(=O)O; AEEA = NCCOCCOCC(=O)O; Aib = CC(C)(N)C(=O)O; βAla = NCCC(=O)O; Sar = CNCC(=O)O

human GRP receptor, sequence (P30550 whole entry): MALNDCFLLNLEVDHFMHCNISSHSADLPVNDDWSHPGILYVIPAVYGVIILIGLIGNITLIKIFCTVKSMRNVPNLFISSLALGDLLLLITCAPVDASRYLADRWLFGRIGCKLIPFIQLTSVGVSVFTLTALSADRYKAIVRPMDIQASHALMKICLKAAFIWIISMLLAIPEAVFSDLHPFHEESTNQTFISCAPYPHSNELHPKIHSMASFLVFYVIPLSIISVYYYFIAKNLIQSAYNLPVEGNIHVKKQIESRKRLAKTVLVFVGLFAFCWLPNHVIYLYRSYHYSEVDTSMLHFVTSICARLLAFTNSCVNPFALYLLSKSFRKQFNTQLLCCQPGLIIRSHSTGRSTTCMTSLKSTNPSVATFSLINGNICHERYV

GNHWAVXHLX (Palmitoyl-Gly-Asn-His-Trp-Ala-Val-D-Ala-His-Leu-Nle-NH2) [Peptide 10]: the “hIP1 GRPR EC50” value worked out at 3.8 nM.

B1: Peptide 142 (peptide)
peptide: {C18 diacid}-[γGlu][AEEA][AEEA]GNHWAV[βAla]HL[Nle]-NH2
SMILES: CCCC[C@H](NC(=O)[C@H](CC(C)C)NC(=O)[C@H](Cc1c[nH]cn1)NC(=O)CCNC(=O)[C@@H](NC(=O)[C@H](C)NC(=O)[C@H](Cc1c[nH]c2ccccc12)NC(=O)[C@H](Cc1c[nH]cn1)NC(=O)[C@H](CC(N)=O)NC(=O)CNC(=O)COCCOCCNC(=O)COCCOCCNC(=O)CC[C@H](NC(=O)CCCCCCCCCCCCCCCCC(=O)O)C(=O)O)C(C)C)C(N)=O
Take B1: the “hIP1 GRPR EC50” value amounted to 3.55 nM.

B2: Peptide 11 (peptide)
peptide: Palmitoyl-[d(γGlu)][AEEA][AEEA]GNHW[Aib]V[dA]HL[Nle]-NH2
SMILES: CCCCCCCCCCCCCCCC(=O)N[C@H](CCC(=O)NCCOCCOCC(=O)NCCOCCOCC(=O)NCC(=O)N[C@@H](CC(N)=O)C(=O)N[C@@H](Cc1c[nH]cn1)C(=O)N[C@@H](Cc1c[nH]c2ccccc12)C(=O)NC(C)(C)C(=O)N[C@H](C(=O)N[C@H](C)C(=O)N[C@@H](Cc1c[nH]cn1)C(=O)N[C@@H](CC(C)C)C(=O)N[C@@H](CCCC)C(N)=O)C(C)C)C(=O)O
Consider B2, for which the “hIP1 GRPR EC50” value is 3.2 nM.

B3: Peptide 131 (peptide)
peptide: {C20 diacid}-[γGlu][AEEA][AEEA]GNHWAV[dA]HL[Nle][Sar]-NH2
SMILES: CCCC[C@H](NC(=O)[C@H](CC(C)C)NC(=O)[C@H](Cc1c[nH]cn1)NC(=O)[C@@H](C)NC(=O)[C@@H](NC(=O)[C@H](C)NC(=O)[C@H](Cc1c[nH]c2ccccc12)NC(=O)[C@H](Cc1c[nH]cn1)NC(=O)[C@H](CC(N)=O)NC(=O)CNC(=O)COCCOCCNC(=O)COCCOCCNC(=O)CC[C@H](NC(=O)CCCCCCCCCCCCCCCCCCC(=O)O)C(=O)O)C(C)C)C(=O)N(C)CC(N)=O
In the case of B3, the “hIP1 GRPR EC50” value is 54.2 nM.

B4: Peptide 143 (peptide)
peptide: {C18 diacid}-[γGlu][AEEA][AEEA][dF]NHWAV[dA]HL[Nle]-NH2
SMILES: CCCC[C@H](NC(=O)[C@H](CC(C)C)NC(=O)[C@H](Cc1c[nH]cn1)NC(=O)[C@@H](C)NC(=O)[C@@H](NC(=O)[C@H](C)NC(=O)[C@H](Cc1c[nH]c2ccccc12)NC(=O)[C@H](Cc1c[nH]cn1)NC(=O)[C@H](CC(N)=O)NC(=O)[C@@H](Cc1ccccc1)NC(=O)COCCOCCNC(=O)COCCOCCNC(=O)CC[C@H](NC(=O)CCCCCCCCCCCCCCCCC(=O)O)C(=O)O)C(C)C)C(N)=O
On to B4, for which the “hIP1 GRPR EC50” value is 10.7 nM.

B5: Peptide 140 (peptide)
peptide: {C18 diacid}-[γGlu][AEEA][AEEA]FNHWAV[βAla]HL[Nle]-NH2
SMILES: CCCC[C@H](NC(=O)[C@H](CC(C)C)NC(=O)[C@H](Cc1c[nH]cn1)NC(=O)CCNC(=O)[C@@H](NC(=O)[C@H](C)NC(=O)[C@H](Cc1c[nH]c2ccccc12)NC(=O)[C@H](Cc1c[nH]cn1)NC(=O)[C@H](CC(N)=O)NC(=O)[C@H](Cc1ccccc1)NC(=O)COCCOCCNC(=O)COCCOCCNC(=O)CC[C@H](NC(=O)CCCCCCCCCCCCCCCCC(=O)O)C(=O)O)C(C)C)C(N)=O
With B5, the “hIP1 GRPR EC50” value worked out at 4.8 nM.

B6: Peptide 133 (peptide)
peptide: {C18 diacid}-[γGlu][AEEA][AEEA][AEEA][AEEA]GNH[Trp(6-F)]AV[dA]HL[Nle][Sar]-NH2
SMILES: CCCC[C@H](NC(=O)[C@H](CC(C)C)NC(=O)[C@H](Cc1c[nH]cn1)NC(=O)[C@@H](C)NC(=O)[C@@H](NC(=O)[C@H](C)NC(=O)[C@H](Cc1c[nH]c2cc(F)ccc12)NC(=O)[C@H](Cc1c[nH]cn1)NC(=O)[C@H](CC(N)=O)NC(=O)CNC(=O)COCCOCCNC(=O)COCCOCCNC(=O)COCCOCCNC(=O)COCCOCCNC(=O)CC[C@H](NC(=O)CCCCCCCCCCCCCCCCC(=O)O)C(=O)O)C(C)C)C(=O)N(C)CC(N)=O
Regarding B6, the “hIP1 GRPR EC50” value worked out at 600 nM.

B7: Peptide 139 (peptide)
peptide: {C18 diacid}-[γGlu][AEEA][AEEA]GDHW[dA]V[dA]HL[Nle]-NH2
SMILES: CCCC[C@H](NC(=O)[C@H](CC(C)C)NC(=O)[C@H](Cc1c[nH]cn1)NC(=O)[C@@H](C)NC(=O)[C@@H](NC(=O)[C@@H](C)NC(=O)[C@H](Cc1c[nH]c2ccccc12)NC(=O)[C@H](Cc1c[nH]cn1)NC(=O)[C@H](CC(=O)O)NC(=O)CNC(=O)COCCOCCNC(=O)COCCOCCNC(=O)CC[C@H](NC(=O)CCCCCCCCCCCCCCCCC(=O)O)C(=O)O)C(C)C)C(N)=O
On to B7, for which the “hIP1 GRPR EC50” value is over 10000 nM.

B8: Peptide 136 (peptide)
peptide: {C18 diacid}-[γGlu][AEEA][AEEA][AEEA][AEEA]GAH[Trp(7-F)]AV[dA]HL[Nle]-NH2
SMILES: CCCC[C@H](NC(=O)[C@H](CC(C)C)NC(=O)[C@H](Cc1c[nH]cn1)NC(=O)[C@@H](C)NC(=O)[C@@H](NC(=O)[C@H](C)NC(=O)[C@H](Cc1c[nH]c2c(F)cccc12)NC(=O)[C@H](Cc1c[nH]cn1)NC(=O)[C@H](C)NC(=O)CNC(=O)COCCOCCNC(=O)COCCOCCNC(=O)COCCOCCNC(=O)COCCOCCNC(=O)CC[C@H](NC(=O)CCCCCCCCCCCCCCCCC(=O)O)C(=O)O)C(C)C)C(N)=O
In the case of B8, the “hIP1 GRPR EC50” value stood at 40.5 nM.

B9: Peptide 144 (peptide)
peptide: {C18 diacid}-[γGlu][AEEA][AEEA]FN[3Pal]WAV[βAla]HL[Nle]-NH2
SMILES: CCCC[C@H](NC(=O)[C@H](CC(C)C)NC(=O)[C@H](Cc1c[nH]cn1)NC(=O)CCNC(=O)[C@@H](NC(=O)[C@H](C)NC(=O)[C@H](Cc1c[nH]c2ccccc12)NC(=O)[C@H](Cc1cccnc1)NC(=O)[C@H](CC(N)=O)NC(=O)[C@H](Cc1ccccc1)NC(=O)COCCOCCNC(=O)COCCOCCNC(=O)CC[C@H](NC(=O)CCCCCCCCCCCCCCCCC(=O)O)C(=O)O)C(C)C)C(N)=O
B9: the “hIP1 GRPR EC50” value is 5.99 nM.

B10: Peptide 137 (peptide)
peptide: {C18 diacid}-[γGlu][AEEA][AEEA][AEEA][AEEA]GRH[Trp(7-F)]AV[dA]HL[Nle][Sar]-NH2
SMILES: CCCC[C@H](NC(=O)[C@H](CC(C)C)NC(=O)[C@H](Cc1c[nH]cn1)NC(=O)[C@@H](C)NC(=O)[C@@H](NC(=O)[C@H](C)NC(=O)[C@H](Cc1c[nH]c2c(F)cccc12)NC(=O)[C@H](Cc1c[nH]cn1)NC(=O)[C@H](CCCNC(=N)N)NC(=O)CNC(=O)COCCOCCNC(=O)COCCOCCNC(=O)COCCOCCNC(=O)COCCOCCNC(=O)CC[C@H](NC(=O)CCCCCCCCCCCCCCCCC(=O)O)C(=O)O)C(C)C)C(=O)N(C)CC(N)=O
Turning to B10, the “hIP1 GRPR EC50” value was determined as 488 nM.

B11: Peptide 141 (peptide)
peptide: {C18 diacid}-[γGlu][AEEA][AEEA]RRHWAV[dA]HL[Nle]-NH2
SMILES: CCCC[C@H](NC(=O)[C@H](CC(C)C)NC(=O)[C@H](Cc1c[nH]cn1)NC(=O)[C@@H](C)NC(=O)[C@@H](NC(=O)[C@H](C)NC(=O)[C@H](Cc1c[nH]c2ccccc12)NC(=O)[C@H](Cc1c[nH]cn1)NC(=O)[C@H](CCCNC(=N)N)NC(=O)[C@H](CCCNC(=N)N)NC(=O)COCCOCCNC(=O)COCCOCCNC(=O)CC[C@H](NC(=O)CCCCCCCCCCCCCCCCC(=O)O)C(=O)O)C(C)C)C(N)=O
As for B11, the “hIP1 GRPR EC50” value came to 7.72 nM.

B12: Peptide 134 (peptide)
peptide: {C18 diacid}-[γGlu][AEEA][AEEA]GNH[Trp(7-Me)]AV[dA]HL[Nle]R-NH2
SMILES: CCCC[C@H](NC(=O)[C@H](CC(C)C)NC(=O)[C@H](Cc1c[nH]cn1)NC(=O)[C@@H](C)NC(=O)[C@@H](NC(=O)[C@H](C)NC(=O)[C@H](Cc1c[nH]c2c(C)cccc12)NC(=O)[C@H](Cc1c[nH]cn1)NC(=O)[C@H](CC(N)=O)NC(=O)CNC(=O)COCCOCCNC(=O)COCCOCCNC(=O)CC[C@H](NC(=O)CCCCCCCCCCCCCCCCC(=O)O)C(=O)O)C(C)C)C(=O)N[C@@H](CCCNC(=N)N)C(N)=O
As for B12, the “hIP1 GRPR EC50” value was over 10000 nM.

B13: Peptide 130 (peptide)
peptide: {C18 diacid}-[γGlu][AEEA][AEEA]GNHRAV[dA]HL[Nle][Sar]-NH2
SMILES: CCCC[C@H](NC(=O)[C@H](CC(C)C)NC(=O)[C@H](Cc1c[nH]cn1)NC(=O)[C@@H](C)NC(=O)[C@@H](NC(=O)[C@H](C)NC(=O)[C@H](CCCNC(=N)N)NC(=O)[C@H](Cc1c[nH]cn1)NC(=O)[C@H](CC(N)=O)NC(=O)CNC(=O)COCCOCCNC(=O)COCCOCCNC(=O)CC[C@H](NC(=O)CCCCCCCCCCCCCCCCC(=O)O)C(=O)O)C(C)C)C(=O)N(C)CC(N)=O
As to B13, the “hIP1 GRPR EC50” value was over 10000 nM.

B14: Peptide 132 (peptide)
peptide: {C20 diacid}-[γGlu][AEEA][AEEA][AEEA][AEEA]GRHWAV[dA]HL[Nle]-NH2
SMILES: CCCC[C@H](NC(=O)[C@H](CC(C)C)NC(=O)[C@H](Cc1c[nH]cn1)NC(=O)[C@@H](C)NC(=O)[C@@H](NC(=O)[C@H](C)NC(=O)[C@H](Cc1c[nH]c2ccccc12)NC(=O)[C@H](Cc1c[nH]cn1)NC(=O)[C@H](CCCNC(=N)N)NC(=O)CNC(=O)COCCOCCNC(=O)COCCOCCNC(=O)COCCOCCNC(=O)COCCOCCNC(=O)CC[C@H](NC(=O)CCCCCCCCCCCCCCCCCCC(=O)O)C(=O)O)C(C)C)C(N)=O
On to B14, for which the “hIP1 GRPR EC50” value amounted to 4.18 nM.

B15: Peptide 138 (peptide)
peptide: {C20 diacid}-[γGlu][AEEA][AEEA]GNH[Trp(7-F)]AV[dA]HL[Nle][Sar]-NH2
SMILES: CCCC[C@H](NC(=O)[C@H](CC(C)C)NC(=O)[C@H](Cc1c[nH]cn1)NC(=O)[C@@H](C)NC(=O)[C@@H](NC(=O)[C@H](C)NC(=O)[C@H](Cc1c[nH]c2c(F)cccc12)NC(=O)[C@H](Cc1c[nH]cn1)NC(=O)[C@H](CC(N)=O)NC(=O)CNC(=O)COCCOCCNC(=O)COCCOCCNC(=O)CC[C@H](NC(=O)CCCCCCCCCCCCCCCCCCC(=O)O)C(=O)O)C(C)C)C(=O)N(C)CC(N)=O
On to B15, for which the “hIP1 GRPR EC50” value worked out at 81.8 nM.
